From publication PMC2119095

Target: Ld class I MHC molecule of the mouse, properly folded form detected by mAb 30-5-7 (mouse)
Test: radioligand binding + co-IP

Chain of Ld class I MHC molecule of the mouse, properly folded form detected by mAb 30-5-7 (mouse) (P01897 25-362): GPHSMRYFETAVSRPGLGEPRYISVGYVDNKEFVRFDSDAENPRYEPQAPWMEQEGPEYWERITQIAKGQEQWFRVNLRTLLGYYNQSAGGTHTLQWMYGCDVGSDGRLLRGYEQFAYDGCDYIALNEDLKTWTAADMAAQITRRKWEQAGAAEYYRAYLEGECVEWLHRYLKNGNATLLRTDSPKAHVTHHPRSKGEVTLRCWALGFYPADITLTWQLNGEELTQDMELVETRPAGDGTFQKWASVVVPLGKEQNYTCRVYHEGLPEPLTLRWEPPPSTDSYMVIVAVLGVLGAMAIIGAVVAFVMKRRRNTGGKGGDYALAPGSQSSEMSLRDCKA

murine CMV peptide (pp89, 168-176) gave a percent of the FCS control (cells in serum-free medium during the 4 h assay) of 85% and a percent of the surface plus lysate peptide binding accounted for by surface Ld of 80%.
